From patent US20190300590A1 (PROTAGONIST THERAPEUTICS, published 2019) come the findings set out here.

*1 amine or outer side, *2 acyl side, *3 side chain or, on linkers, in order; H or OH if unused. Bridges are numbered along the chain shown (N, C = ends). [ ]: non-standard residue; d: D form. Phe(4-(2-acetylaminoethoxy)) = 4-(2-acetamidoethoxy)-phenylalanine, CC(=O)NCCOc1ccc(C[C@H](N[*:1])C(=O)[*:2])cc1; Phe(4-OMe) = 4-methoxy-L-phenylalanine (O-methyl-L-tyrosine), COc1ccc(C[C@H](N[*:1])C(=O)[*:2])cc1; Phe(3,4-(OMe)2) = COc1ccc(C[C@H](N)C(=O)O)cc1OC; Phe(3,4-Cl2) = N[C@@H](Cc1ccc(Cl)c(Cl)c1)C(=O)O; Phe(3,4-F2) = N[C@@H](Cc1ccc(F)c(F)c1)C(=O)O; 1Nal = N[C@@H](Cc1cccc2ccccc12)C(=O)O; 2Nal = N[C@@H](Cc1ccc2ccccc2c1)C(=O)O; AEF = NCCOc1ccc(C[C@H](N)C(=O)O)cc1; αMeL = CC(C)C[C@](C)(N)C(=O)O; Chg = N[C@H](C(=O)O)C1CCCCC1; αMeK = C[C@](N)(CCCCN)C(=O)O; Abu = CC[C@H](N)C(=O)O; Aib = CC(C)(N)C(=O)O Bounds are passed on as bounds.

For assay [1], the target named is T1, IL23R_huFC (human, UniProt Q5VWK5 24-353).
T1 sequence (looked up): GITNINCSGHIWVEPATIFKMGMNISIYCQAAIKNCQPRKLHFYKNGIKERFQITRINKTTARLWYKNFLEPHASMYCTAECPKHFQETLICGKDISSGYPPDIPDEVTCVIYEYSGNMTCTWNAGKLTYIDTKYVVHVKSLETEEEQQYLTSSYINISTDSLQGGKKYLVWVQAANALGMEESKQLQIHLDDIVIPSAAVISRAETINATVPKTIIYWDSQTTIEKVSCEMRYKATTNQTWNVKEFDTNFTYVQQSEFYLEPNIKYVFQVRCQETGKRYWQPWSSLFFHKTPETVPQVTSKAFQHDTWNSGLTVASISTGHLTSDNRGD
Put plainly: human ELISA vs IL-23. In general terms: An ELISA detects its analyte on a solid surface through an enzyme-linked reagent.

Assay [2] has as its target T2, IL23R_huFC (human, UniProt Q5VWK5 24-353).
T2 sequence (looked up): T1 sequence (looked up)
Put plainly: IL23-IL23R competitive ELISA.

Assay [3] has as its target T3, IL-23R on human cells (IL-23R-expressing DB cells; human NK cells) (human, UniProt Q5VWK5 24-629).
T3 sequence (looked up): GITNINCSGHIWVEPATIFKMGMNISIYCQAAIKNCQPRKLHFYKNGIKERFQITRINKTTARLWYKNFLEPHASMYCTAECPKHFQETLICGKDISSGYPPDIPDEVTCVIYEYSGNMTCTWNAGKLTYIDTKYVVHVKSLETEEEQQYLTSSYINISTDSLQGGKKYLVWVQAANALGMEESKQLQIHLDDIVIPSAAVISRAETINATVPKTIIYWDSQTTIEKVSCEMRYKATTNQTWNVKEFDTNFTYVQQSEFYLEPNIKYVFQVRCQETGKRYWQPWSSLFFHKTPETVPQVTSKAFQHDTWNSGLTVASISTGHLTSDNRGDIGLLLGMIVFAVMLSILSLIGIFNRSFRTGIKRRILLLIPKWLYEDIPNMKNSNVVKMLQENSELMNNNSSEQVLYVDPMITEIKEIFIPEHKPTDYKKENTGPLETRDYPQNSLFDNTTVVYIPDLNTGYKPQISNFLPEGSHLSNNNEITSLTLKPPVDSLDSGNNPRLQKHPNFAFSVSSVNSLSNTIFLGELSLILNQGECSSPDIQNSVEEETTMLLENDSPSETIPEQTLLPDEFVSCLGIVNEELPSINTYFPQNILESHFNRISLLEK
Description: cell-based or functional assay.

For another assay, the target named is Rat IL-23R_huFC (rat). Description: rat ELISA vs IL-23.

B1: Ac-Cyclo-[[Abu]-QTWQC]-[Phe[4-(2-aminoethoxy)]]-1-Nal[Aib]-[Lys(Ac)]-NG-NH2 (peptide)
peptide: Ac-[Abu]QTWQC[AEF][1Nal][Aib]K(Ac)NG-NH2
modifications: thioether 1-6
A word on the IC50: it is the concentration at which inhibition is half-maximal. In the case of B1, the IC50 in the assay with IL23R_huFC [1] is 25 to 100 nM.

B2: Ac-REGTCSTWKCYWHTFG-NH2 (peptide)
peptide: Ac-REGTCSTWKCYWHTFG-NH2
modifications: disulfide 5-10 (inferred)
The molecule B2 displayed an IC50 in the assay with IL23R_huFC [2] of 500 to 1000 nM.

B3: Hy-CADWVCY-[2-Nal]-HTFG-NH2 (peptide)
peptide: CADWVCYXHTFG
modifications: [2-Nal]; -NH2; disulfide
Take B3: in the assay with IL23R_huFC [2], the IC50 lay within 500 to 1000 nM.

B4: Ac-Cyclo-[[Abu]-QTWQC]-[Phe[4-(2-aminoethoxy)]]-W-Chg-[Lys(Ac)]-NG-NH2 (peptide)
peptide: Ac-[Abu]QTWQC[AEF]W[Chg]K(Ac)NG-NH2
modifications: thioether 1-6
Molecule B4 returned an IC50 in the assay with IL23R_huFC [1] of 25 to 100 nM.

B5: Ac-Cyclo-[[Abu]-QTWQC]-[Phe[4-(2-aminoethoxy)]]-[Phe(3,4-OMe2)]-[Aib]-ENG-NH2 (peptide)
peptide: Ac-[Abu]QTWQC[AEF][Phe(3,4-(OMe)2)][Aib]ENG-NH2
modifications: thioether 1-6
B5: the IC50 in the assay with IL23R_huFC [1] lay in the range of 25 to 100 nM.

B6: Ac-Cyclo-[[Abu]-QTWQC]-[Phe[4-(2-aminoethoxy)]]-[Phe(3,4-Cl2)]-[Aib]-ENN-NH2 (peptide)
peptide: Ac-[Abu]QTWQC[AEF][Phe(3,4-Cl2)][Aib]ENN-NH2
modifications: thioether 1-6
B6: in the assay with IL23R_huFC [1], the 50% inhibitory concentration (IC50) lay within 25 to 100 nM. For the same molecule, the “pStat3 HTRF IC50” value in assay [3] was less than 10 nM.

B7: Ac-Cyclo-[[Abu]-QTWQC]-[Phe[4-(2-aminoethoxy)]]-W-[Orn]-ENG-NH2 (peptide)
peptide: XQTWQCFWXENG
modifications: as bracketed in name; thioether cyclo
Take B7: the IC50 with IL23R_huFC [1] was 25 to 100 nM.

B8: Ac-Cyclo-[[Abu]-QTWQC]-[Phe(3,4-F2)]-[2-Nal]-[Aib]-ENG-NH2 (peptide)
peptide: Ac-[Abu]QTWQC[Phe(3,4-F2)][2Nal][Aib]ENG-NH2
modifications: thioether 1-6
On to B8, for which the IC50 with IL23R_huFC [1] is 25 to 100 nM.

B9: Ac-GGGECENWECYWHTFG-NH2 (peptide)
peptide: Ac-GGGECENWECYWHTFG-NH2
modifications: disulfide 5-10 (inferred)
In the case of B9, the IC50 with IL23R_huFC [2] was 500 to 1000 nM.

B10: Ac-Cyclo-[[Abu]-QTWQC]-[Phe[4-(2-(acetyl-aminoethoxy)]]-[2-Nal]-[α-MeLys(Ac)]-[Lys(Ac)]-NG-NH2 (peptide)
peptide: Ac-[Abu]QTWQC[Phe(4-(2-acetylaminoethoxy))][2Nal][αMeK](Ac)K(Ac)NG-NH2
modifications: thioether 1-6
Regarding B10, in the assay with Rat IL-23R_huFC, the IC50 is less than 10 nM.

B11: Ac-F-Cyclo-[[Abu]-QTWQC]]-[Phe[4-(2-aminoethoxy)]]-[2-Nal]-[α-MeLys]-ENN-NH2 (peptide)
peptide: FXQTWQCFXKENN
modifications: as bracketed in name; thioether cyclo
B11 had an IC50 with Rat IL-23R_huFC of less than 10 nM.

B12: Ac-T-Cyclo-[[Abu]-QTWQC]-[Phe[4-(2-aminoethoxy)]]-[2-Nal]-[α-MeLys]-ENN-NH2 (peptide)
peptide: TXQTWQCFXKENN
modifications: as bracketed in name; thioether cyclo
With B12, the IC50 with Rat IL-23R_huFC was less than 10 nM.

B13: Ac-CADWVCYWHNHSEGSG-NH2 (peptide)
peptide: Ac-CADWVCYWHNHSEGSG-NH2
modifications: disulfide 1-6 (inferred)
In turn, B13 yielded an IC50 with IL23R_huFC [2] of 500 to 1000 nM.

B14: Ac-GGVECNDWQCYWHTFG-NH2 (peptide)
peptide: Ac-GGVECNDWQCYWHTFG-NH2
modifications: disulfide 5-10 (inferred)
B14 yielded an IC50 with IL23R_huFC [2] of 500 to 1000 nM.

B15: Ac-Cyclo-[[Abu]-QTWQC]-[Phe(4-OMe)]-[2-Nal]-[α-MeLeu]-ENG-[(D)Lys]-NH2 (peptide)
peptide: Ac-[Abu]QTWQC[Phe(4-OMe)][2Nal][αMeL]ENG[dK]-NH2
modifications: thioether 1-6
On to B15, for which, in the assay with IL23R_huFC [1], the IC50 lay in the range of 25 to 100 nM.

B16: Ac-CADWVCY-[1-Nal]-VTFG-NH2 (peptide)
peptide: Ac-CADWVCY[1Nal]VTFG-NH2
modifications: disulfide 1-6
SMILES: CC(=O)N[C@H]1CSSC[C@@H](C(=O)N[C@@H](Cc2ccc(O)cc2)C(=O)N[C@@H](Cc2cccc3ccccc23)C(=O)N[C@H](C(=O)N[C@H](C(=O)N[C@@H](Cc2ccccc2)C(=O)NCC(N)=O)[C@@H](C)O)C(C)C)NC(=O)[C@H](C(C)C)NC(=O)[C@H](Cc2c[nH]c3ccccc23)NC(=O)[C@H](CC(=O)O)NC(=O)[C@H](C)NC1=O
In turn, B16 registered an IC50 in the assay with IL23R_huFC [2] of 500 to 1000 nM.

B17: Ac-CADWVCYWHEHSERVG-NH2 (peptide)
peptide: Ac-CADWVCYWHEHSERVG-NH2
modifications: disulfide 1-6 (inferred)
B17 displayed an IC50 with IL23R_huFC [2] of 500 to 1000 nM.

B18: Ac-GSVHCMTWECYWHTFG-NH2 (peptide)
peptide: Ac-GSVHCMTWECYWHTFG-NH2
modifications: disulfide 5-10 (inferred)
Turning to B18, the half-inhibitory concentration (IC50) with IL23R_huFC [2] lay in the range of 500 to 1000 nM.
